A short description of the series: protease stability score; higher = more stable; yeast display proteolysis, trypsin and chymotrypsin.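 Further: log10 excess protease needed over predicted unfolded state with 0 meaning unfolded.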

The results in this text go back to the NTF2 design screens of Basanta et al. (2020).

As to “DRHDMHKLEEIWKAIQTGDKDRVKELADPNAEFNVGDKTYHGMDQYITDLKKKRDQMRVHLELQSLDVKNGRARAVAVLRNEHNGTPDQRKFKVNATFRNGRLQHLKLQELS”, the protease stability score was found to be 0.021. Turning to “DRHERKKVAKDFNEALETNDHEQLMEQMDPNARIKYGDKHYHGREDLRRFWKKLVDSVDHITVDKMQVRGEEVVVLAKAESNGRNETFRLVMEFHNGRIKFVRKDTP”, the protease stability score was 0.132. The same measure for “DRKAEKLLEDLLDARRTNDEKKLQDLMDPNVKVDVGNKHYEGRERNAKSYAQEYKQMRLEIRVKSIHNNGNHVIQTFDADVRINGKPIRFRAQMMLHFHNGRVQHVYLRLDPSVEQHRRD”: 0.218.

The sequence “DRKAKEFAETLYDIFQRGNFENFLELIDKNVTVDVGDRTLHGRQAHEFAKEFQKEQLKVEVDDWHVDNQGEKVRITMTFVLHVNGRPQKQRQEQRFHLHNGRIKSLQVKTDE” had a protease stability score of -0.156. In the case of “DRKLEEVFRKWLKAQKEGNPEVARKNADKDAKIVIGDTQIHGRDEMAEKVRHRKKHLQVDIKIKRMQIQGDKIKIKFEVVENHNGKPEKYKATAFARASDGNFKEMQVNKTG”, the protease stability score worked out at 0.12.

For “DRKTEKDAIERARTALQDGDPQQAFDLFDENAKIVVGDQEYHGREQVSTAVEEFRKEIDHFEVERVSVHNGHATIDARVEHNGRSDDVTFHVTVHNGQVREAQVRTK”, the protease stability score is -0.213.

For the sequence “DRNANKLATKVFTAYNRNNPKQLVENLDPNAELSYGDKEYHGRENMKKMVEDIKREMQLSIHIDHVDVHNGQARVEFVQENEHNGQPSRKHYVAHFDHENGRVKKLVFKESG”, the protease stability score is -0.106. The same measure for “DRNHVKEIAKEILKAMETNDEKRMSELMDKNVRLVYGDTEVHGRERVLTTIKHELESIDHVNFHDMSVDGDKIHVVYHVQKNGDRRQVEVRYVISNGKIQEVQINTR”: 0.623; for “DRNRRAEEFARTQLKAFKHGDEKLLRDLFDPNVHISVGDQTVHGRDEVARQEKDQATQVDHATRKIDRVEMNGDQVEVRARIRLNFNGQDRSTDVVYHATDDNGHIVVKSVRQG”: 0.017; for “DRQASEVARKILQAIRKGDPETMKELVDPNVNVTVGEKTFKGREEAARHFVERQKQIRVQVDSMEVSAHNGKVDARMKVLYNHNGRPVKMDVVVHFDMKNGKARRAEYRVDEEQRRRLET”: 0.082. Regarding “DRQNKAQDLAEELRRAFHTNNEDQFKKLADKNARATVGEHTFHGSDEIRKVLKELVDNVDHLRVDIHSVSVHNGQINIDMKLILDHNGRKETQEVHIRAQDHNGQNKVRNITFG”, the protease stability score was -0.154.

As for “DRQVVRDAQTIFRLEKHGNENDVRRMADPNVDVNIGDKEIRGREEFAKSMRRKRDEIRVSLEIKNWTTTGDKANIDAKMQEEHNGRPSEKRVHIIVTATNGRMKSAHYHNTK”, the protease stability score was -0.006. To “DRRDLQLVERVLRALQTGDEDKVMENLDPNARVEYGDKEYHGREQLHEQIERDHRNMRFSIDVKRVDLHGDRAHFDATVTMNINGKPFEDRFHIDVVARNGRIKHLSMKMDPDRVKEVES” belongs -0.157; to “DRREAHKRAQEMVDNFRDNDKDRIVELADKDVHARIGDKRLHGREELATFLVELARRADRVEVKSIHVQGEQIEMDMQMTVDGRERTFTLRMTYHNGKLKHLEIDPDDLRKIES”, 0.987; to “DRRETAKEVMKKISDILKENDENRLEDLMDPNAKVNVGDKRVHGRREAANQMVEEHTRYDHMDMDIRRIDVDGDKIIVIFTVTLTNNGKTDTKNVVIYFTVHNGRVQITRIRHK”, -0.157. Sequence “DRRQEARDIQHDQNRALKHGDQESAQRLFDENARIKIGDRQWHGSDDVMTEVREQHKKVDSIRIHVVSIDVRGDQYDINVQYNLHYDGDNDTFRATQRLKKHNGSVRVVDQHEQ” displayed a protease stability score of -0.276. Sequence “DRSQVESAMRKALHNDPREHEKMFDKDARIQIGDTTFTGQETVLRVIRQLLTKADHIQINDYEISGNKVRIDVQVEVNGRRVRVELDFTVSNGRIKHATWKARSEEELHRIKENLR” yielded a protease stability score of 0.239. The same measure for “DRTAEKVLRQFLHAIRDNNPEQMVDLMDPNVTLEIGDKEITGRESAARTAKTRNDEQRMSLSDYRIDVKGDRITADIDQYNEHNGKPRRHQYILDVNIHNGKIKSLVYESDK”: -0.029; for “DRTEILKHMFDDLAQVRRDGDPEKLNELMDEDVKARYGDKEYHGREDVARNIHRLASQADHVHIQLDRMSVDNGKARLEADVRIEHNGKVDEVRVEIRADVDNGRVNLREMIYR”: 0.839; for “DRTKTAKKVWDDFRSIMENNDPKEAEKLFDENAKADLGSKQVHGREQMVEMLRELAERVDHVEIRMKTVTDDNGQLNIEAEVRAEINGKQHTWRNQLNVVQQGDKRRIVSAKYG”: -0.42. The same measure for “DSDAARELVKALNTGNEEELKHMVDPNARARVGDKRLHGRDELFRFWHKLKRHVDHRRVNKVEIHGEKAHVDVQLNVDGRNIRVNIVMEAHNGRVKEFTIEFRDRDARKEFRNQVD”: 1.16; for “DSDAARILVEFWTALQKGDHDRLKQNMDPNAKMKIGDHTLHGREQIAEHATKLKREMRIDIRLKSFDDDGDHAILKFEMRVDVNGKPFSMDVTVNVKAHNGHLVKVNFRIPEKDLQRLNS”: 0.633.

Regarding “DSDEIRKFFQQLHTNDEKKLRRNFDKDARFEVGDKDYHGQENAQEAMAQIFQRADHVTYKTVKVEGDKVDMNLQIQVNGKQFDLRLHAKFDNGRLKEASLHVTSEEQHTEVLEMLS”, the protease stability score was 0.643. The same measure for “DSDEVRKFNEKVKTGNPKHLQDMFDENAKVQIGNKDFRGREHVQTVIDKIERDVDHKEIKRMEVKGDHFEIDAIYNINGHNIRMIIKIQVRNGKIQNMTVEFTNEEQQEIFEENVQ”: 0.423. The same measure for “DSDKIDNVVKTIMHDLRKGNPERVMKNADKDVKIVVGDKRYHGRETLETLMKEMVDQADHIQFHSVNIRGEKVVVVAVLQHNGVNVDVQFNMEIDNGRATKVELKVRNPEQQKKFDS”: 0.583; for “DSDKLRKSAKKFLDLQRTGNEDELKKMIDPNAKAVVGDKEYHGSTEIAHALARMRREVDHITLDRFQFKGNRLKANMTYQHNGRRDRFVVTVTMHNGRVSHITFKST”: 0.38.

With “DSDLVRKMKKFEENRRTGNEHEVDKMIDPNAKLQVGDKTIHGRERQRDYMRELKNSARLDLKIDRVHDQPGRVVATFILKVNINGRPDTIRVKLVIQWHNGEIQRAELRVPEEWMDRFKQ”, the protease stability score was 0.642. The sequence “DSDQSKREMDKFLEMVSTGDPDEVNRLLDKDAHAHVGDQTYHGREEISHMWKELREKIDHLEVHDYKVNGNKLEVDMHATINGQNVVFTVVAVLRNGHFESVEVQYRSEEEEEKVKR” registered a protease stability score of 0.452.

Regarding “DSEAAKRAETFIRNLVQGNEDELRDMADKDVNFQVGDKTVHGREQWQEEVSRTEKEARVEMRVDDYRDEPGTVKLNAKVTIEYNGQPFTVNLHVEIHFKNGKMQRAVFEIDPEVQKEVES”, the protease stability score is 0.692. As for “DSEAEDLLRRILDAIRTNNREELHRQIDPNAHFEIGDREFKGMTQWATEIVRQAKEIRVDQSFHSISIRNGKLSARVEQVNETNGKPHSRQFKLRMKWHDGQVKFLSMEDDG”, the protease stability score was 0.362. The same measure for “DSEAHELADTIMHALKHNNPDQLKEQFDPNVRVDIGNNRYHGREQFATEVIRTLREWRVEYKSFDQRNSGDKVDLRIRFVVNVNGRPHRYSVTVHLNFKDGRVKKMKVEMDPDQERKQTQ”: 0.914; for “DSEAQKIAEKLHEAWNTNNPNEAQHLMDPNAHVRVGDKEIDGMDQYVREMQRLLDKLRLEVKDWDVRAHNGNVTLRANARVDVNGQPQEYTYVIVMQVKNGRVKELHLHIDEEELRTLES”: 1.02. The same measure for “DSEDLVRKFITEWEQAVQQGDEKQLQELMDEDAHVSVGDTKLHGREDIARELAEQIRHADHVQFRIESLSVHGDHVNLNQKVRYKHNGKTDSSRYRLQAIAHGDKVTLKSFHDG”: -0.28; for “DSEEAKKADEVVQTNDEDRLRDLLDEDARIIIGEFTFHGRHKAEEAVKRFQDAVDHIEIEDYDVQGNEITVVFTVSFNGKKMRFKASFHLRNGRLKHMSMTFTDPDQEREMSNLLR”: 0.56; for “DSEEEKTISEQLRTNNPDDAEKLVDENARIVVGDKVIDGRKDAHRFFKRLTEQIDHLQVDSLTVKNGRFSLDFRFNVNGRDLRMVMKVVVDNGKIQYMQLDARDHDIQEHMRDALR”: 0.967.

With “DSEERHDFAHKVMEVFQQGDPDQMRDMADPNVRLHVGEKNVTGRDRVRTALTEFRQRVDHVQVDHVHVTGDKIVIHATVEINGRRRRVIIVARVRNGRIHEIEVDLK”, the protease stability score was 1.61. To “DSEERKTVARELNKVLKENDEEKFKRLADENVKLHYGDKEFHGRERAEQVLREWKKRIDHLEVNHVNNTGDRIVIHATVNVNGVNVHLEFNARLDNGHVTSVRLQYRDEEDRKRLES” belongs 0.814; to “DSEKDKDWLRKLQSAVERNDPDSVMRLLDPNAEANYGDQTLHGREHIRKMFSELLKHADHVEVTDVRAHNGRLQLDVIMTINGRKSRYDLQFQFSNGRVKKVSVHSR”, 1.26. On to “DSEKIKDVARQLVRQIEENNPDEIVKLLDPNARADYGDKRISGHEKIADELRKFHERADRIRVETVEVHNGRIVIDLHVNINGRMQRFHVFADLHNGKIKRIEFQTG”, for which the protease stability score was 1.54.

Turning to “DSEKMHEINKALKTNDPDKLEQLMDKDVRAKVGDKTFHGREEVVKMWRDLYKQADHVNVDRVDVQGEKIDATVRADFNGTSVDYKVHISASNGRIKHITVTVTDEERHRQLQSVLG”, the protease stability score amounted to 1.31. The same measure for “DSEKNEALQRAVEIWNSNDPDKLKKQFDPNARHTYGDTVVHGRENLARRLEQLKRESRLTFQVTHLDVHNGKVTADVTIVEEHNGKPDTKRMDVQANVQNGRFKSVYVHESS”: -0.003; for “DSEKYLKDLNSNLLRILQTNDEKKLRDLVDKDVKITVGDKSYHGREEFAKVLRTLLNEHDKWRVHYQSIHQHNGKLRAVIDLKAENNGQTLSRNLDITAEERNGEVHVKHAQIG”: 1.08; for “DSENVKVVREFIKAVERNDHQKLRDLVDPNATAQIGDKEYTGMDDIVTRIIETIRQLRFKIKLHHVDNHNGVVNVKAVFTFEHNGKPDKREVDIRVEITNGKVTNFQYQEHK”: 2.08. With “DSERAKEVVKEFEHNDRQKFRDLFDEDASVTIGNRTYHGRHEVERALKRHIDRVDHVKINSVQIRGERIHMEAVFNINGQEFTLQMTLQLSNGKVKTWVLRVTDPDLKRKLHKNME”, the protease stability score came to 1.15. “DSERAKQWTHFLRLMETGNEEDLSKMADPNARFQVGDETYKGKDDVTKWARTVKTHMRVTYKRLNNDDEEGHARIEADYQYDHNGKPEEDKNSLVLSFHNGQIKEVVIHHVS” displayed a protease stability score of 0.164. To “DSERASEAARTFVDAMRTNDEKQFNELFDPNARVRIGDEKVHGMDRITDQLHNLNKKADHNEVLDYKVNGNTAVVHFQVDHNGQTRRYRIVITMHNGRVHEMQVNTK” belongs 0.458; to “DSERRQREAENFFKNLQTGNKHEFEKLFPPDVRAQVGEKEIHGREEAQKWWKNIHDRADHMQIDHFDVDGNKITFDMRMNVDGHEIRMRLTIRLENGQYRSLTAEVRDEDAERRLKS”, 0.672.
